Holding throughout (details): label: none (ethidium bromide stain)
The target of series [1] is T1, bacteriophage λN peptide (bacteriophage lambda, UniProt P03045).
T1 chain: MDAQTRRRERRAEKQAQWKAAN
Kind of series: EMSA; 50 mM Tris-HCl pH 8.0, 50 mM KCl, 30 °C 15 min; RNA refolded from 95 °C; 15% PAGE in Tris-borate-EDTA, ethidium bromide stain. (Mobility shift assays separate free from complexed probe on a gel.)

Series [2] addresses T2, HTLV-1 Rex peptide (HTLV-1, UniProt P0C206).
T2 chain: MPKTRRRPRRSQRKRP
Kind of series: EMSA; peptide in excess over RNA; ++; 50 mM Tris-HCl pH 8.0, 50 mM KCl, 30 °C 15 min; RNA refolded from 95 °C; 15% PAGE in Tris-borate-EDTA, ethidium bromide stain.

Series [3] has as its target T2, HTLV-1 Rex peptide. In words: EMSA; 50 mM Tris-HCl pH 8.0, 50 mM KCl, 30 °C 15 min; RNA refolded from 95 °C; 15% PAGE in Tris-borate-EDTA, ethidium bromide stain.

On to UAGGCGACGGUACGCAAGUACUCUUGCGCCGGCCUA (structured_RNA) [HTLV-1 Rex aptamer], for which the binding result in series [1] is “no binding”. For the same molecule, the “apparent K (half saturation)” value in series [2] was approximately 300 nM.

For the molecule GGCUGGACUCGUACUUCGGUACUGGAGAAACAGCC (structured_RNA) [HIV-1 Rev aptamer], the binding result in series [3] and in series [1] was “no binding” in each case.

The record behind these values is PMC4053799, “RNA Detection in Live Bacterial Cells Using Fluorescent Protein Complementation Triggered by Interaction of Two RNA Aptamers with Two RNA-Binding Peptides”.
